Each block holds one binder with its values, some of them ahead of it.
Target: IL-12 receptor of human T cells (human, UniProt P42701 24-662; Q99665 24-862)
Experiment: cell-based or functional assay

Sequence of IL-12 receptor of human T cells (Q99665 24-862, chain 2 of 2, other chains not shown): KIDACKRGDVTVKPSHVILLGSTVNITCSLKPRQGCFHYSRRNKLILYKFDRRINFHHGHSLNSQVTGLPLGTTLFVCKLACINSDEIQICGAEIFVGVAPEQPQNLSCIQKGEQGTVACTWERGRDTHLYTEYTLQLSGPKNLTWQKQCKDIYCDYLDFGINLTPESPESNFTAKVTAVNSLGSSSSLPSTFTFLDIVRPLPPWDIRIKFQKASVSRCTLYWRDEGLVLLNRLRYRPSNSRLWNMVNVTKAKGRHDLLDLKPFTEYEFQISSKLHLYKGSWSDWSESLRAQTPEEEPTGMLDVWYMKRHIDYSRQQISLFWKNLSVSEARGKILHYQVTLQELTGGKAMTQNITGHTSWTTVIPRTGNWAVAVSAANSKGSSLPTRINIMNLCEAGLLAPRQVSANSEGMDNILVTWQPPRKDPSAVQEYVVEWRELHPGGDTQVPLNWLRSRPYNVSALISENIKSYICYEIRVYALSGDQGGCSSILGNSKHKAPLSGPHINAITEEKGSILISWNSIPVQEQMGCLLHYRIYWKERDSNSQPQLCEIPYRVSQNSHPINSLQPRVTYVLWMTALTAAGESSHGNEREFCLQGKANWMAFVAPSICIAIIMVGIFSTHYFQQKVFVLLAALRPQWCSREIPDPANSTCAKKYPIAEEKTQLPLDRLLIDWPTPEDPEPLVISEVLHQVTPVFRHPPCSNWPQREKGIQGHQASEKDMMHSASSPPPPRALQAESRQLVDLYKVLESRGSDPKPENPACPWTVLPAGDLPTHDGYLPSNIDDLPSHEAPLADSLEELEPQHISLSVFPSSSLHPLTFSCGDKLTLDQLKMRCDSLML

change of the p-STAT4 EC50 in human T cells with low molecular weight heparin against without: 5.5 times
half maximal effective concentration (EC50) of p-STAT4 (Tyr693) in activated human T cells, AlphaLISA: 0.0565 nM
B1: T1.02 (anti-hu FAP/hu IL-12 mut1, hu IgG1 DANG) (bispecific antibody)
heavy: QVQLVQSGAEVKKPGASVKVSCKTSRYTFTEYTIHWVRQAPGQRLEWIGGINPNNGIPNYNQKFKGRVTITVDTSASTAYMELSSLRSEDTAVYYCARRRIAYGYDEGHAMDYWGQGTLVTVSSASTKGPSVFPLAPSSKSTSGGTAALGCLVKDYFPEPVTVSWNSGALTSGVHTFPAVLQSSGLYSLSSVVTVPSSSLGTQTYICNVNHKPSNTKVDKKVEPKSCDKTHTCPPCPAPELLGGPSVFLFPPKPKDTLMISRTPEVTCVVVAVSHEDPEVKFNWYVDGVEVHNAKTKPREEQYGSTYRVVSVLTVLHQDWLNGKEYKCKVSNKALPAPIEKTISKAKGQPREPQVYTLPPSRDELTKNQVSLWCLVKGFYPSDIAVEWESNGQPENNYKTTPPVLDSDGSFFLYSKLTVDKSRWQQGNVFSCSVMHEALHNHYTQKSLSLSPGK
light: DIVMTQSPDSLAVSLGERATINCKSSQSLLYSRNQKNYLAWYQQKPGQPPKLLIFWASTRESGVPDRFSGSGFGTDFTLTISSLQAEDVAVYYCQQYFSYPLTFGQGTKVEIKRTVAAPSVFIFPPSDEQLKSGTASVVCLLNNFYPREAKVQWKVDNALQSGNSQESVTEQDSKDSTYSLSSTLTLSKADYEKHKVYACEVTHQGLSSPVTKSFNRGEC
chain: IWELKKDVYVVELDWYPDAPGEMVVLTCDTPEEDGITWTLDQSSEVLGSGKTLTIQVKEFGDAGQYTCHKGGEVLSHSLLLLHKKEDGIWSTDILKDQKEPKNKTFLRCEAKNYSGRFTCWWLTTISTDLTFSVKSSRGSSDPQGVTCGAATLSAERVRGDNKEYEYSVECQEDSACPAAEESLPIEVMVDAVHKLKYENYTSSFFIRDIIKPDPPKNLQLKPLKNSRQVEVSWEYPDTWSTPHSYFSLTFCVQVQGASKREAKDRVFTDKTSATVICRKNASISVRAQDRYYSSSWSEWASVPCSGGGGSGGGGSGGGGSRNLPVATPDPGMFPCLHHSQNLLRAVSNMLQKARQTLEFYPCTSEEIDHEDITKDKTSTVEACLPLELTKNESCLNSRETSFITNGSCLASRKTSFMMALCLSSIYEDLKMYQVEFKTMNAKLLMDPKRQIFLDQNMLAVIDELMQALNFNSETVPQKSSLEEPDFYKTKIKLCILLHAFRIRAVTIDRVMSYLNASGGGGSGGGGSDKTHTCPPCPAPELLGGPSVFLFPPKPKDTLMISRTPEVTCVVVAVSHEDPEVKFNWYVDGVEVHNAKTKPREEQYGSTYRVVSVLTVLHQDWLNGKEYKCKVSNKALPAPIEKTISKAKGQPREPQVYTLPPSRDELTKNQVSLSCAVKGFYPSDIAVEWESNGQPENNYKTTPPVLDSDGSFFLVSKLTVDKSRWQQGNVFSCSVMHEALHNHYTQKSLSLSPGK

change of the p-STAT4 EC50 in human T cells with low molecular weight heparin against without: 4 times
half maximal effective concentration (EC50) of p-STAT4 (Tyr693) in activated human T cells, AlphaLISA: 0.147 nM
B2: T1.03 (anti-hu FAP/hu IL-12 mut2, hu IgG1 DANG) (bispecific antibody)
heavy: B1 heavy
light: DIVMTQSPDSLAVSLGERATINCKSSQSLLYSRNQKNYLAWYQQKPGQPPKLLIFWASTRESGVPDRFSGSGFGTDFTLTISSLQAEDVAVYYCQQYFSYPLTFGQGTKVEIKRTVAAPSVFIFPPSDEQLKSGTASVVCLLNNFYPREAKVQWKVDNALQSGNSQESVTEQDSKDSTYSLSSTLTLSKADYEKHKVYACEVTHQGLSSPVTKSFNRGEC
chain: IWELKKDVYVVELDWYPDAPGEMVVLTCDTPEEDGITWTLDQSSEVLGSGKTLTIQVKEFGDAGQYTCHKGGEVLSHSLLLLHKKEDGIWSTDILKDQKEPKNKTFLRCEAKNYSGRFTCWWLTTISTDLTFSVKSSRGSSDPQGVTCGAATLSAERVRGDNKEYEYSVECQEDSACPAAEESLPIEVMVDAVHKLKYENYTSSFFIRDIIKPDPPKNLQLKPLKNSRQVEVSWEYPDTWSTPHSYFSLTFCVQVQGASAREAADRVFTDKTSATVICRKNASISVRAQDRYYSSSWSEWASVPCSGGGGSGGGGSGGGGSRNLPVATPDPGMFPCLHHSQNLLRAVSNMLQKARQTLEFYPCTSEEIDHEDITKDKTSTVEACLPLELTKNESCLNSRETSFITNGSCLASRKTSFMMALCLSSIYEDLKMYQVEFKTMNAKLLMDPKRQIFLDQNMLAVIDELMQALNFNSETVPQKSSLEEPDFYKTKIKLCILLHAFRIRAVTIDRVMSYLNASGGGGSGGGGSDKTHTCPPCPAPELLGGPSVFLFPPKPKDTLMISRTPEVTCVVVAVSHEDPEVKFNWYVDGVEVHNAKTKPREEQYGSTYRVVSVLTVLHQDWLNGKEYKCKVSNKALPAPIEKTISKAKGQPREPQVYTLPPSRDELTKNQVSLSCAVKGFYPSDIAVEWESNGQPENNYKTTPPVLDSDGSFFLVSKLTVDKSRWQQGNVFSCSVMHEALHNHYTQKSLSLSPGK

change of the p-STAT4 EC50 in human T cells with low molecular weight heparin against without: 9.4 times
half maximal effective concentration (EC50) of p-STAT4 (Tyr693) in activated human T cells, AlphaLISA: 0.0145 nM
B3: T1.01 (anti-hu FAP/hu IL-12, hu IgG1 DANG) (bispecific antibody)
heavy: B1 heavy
light: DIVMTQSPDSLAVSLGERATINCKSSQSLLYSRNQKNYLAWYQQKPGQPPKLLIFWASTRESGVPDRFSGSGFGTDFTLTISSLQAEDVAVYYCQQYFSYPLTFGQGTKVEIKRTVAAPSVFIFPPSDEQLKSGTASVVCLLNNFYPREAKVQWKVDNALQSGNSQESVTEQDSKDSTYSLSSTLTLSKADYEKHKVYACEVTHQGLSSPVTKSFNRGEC
chain: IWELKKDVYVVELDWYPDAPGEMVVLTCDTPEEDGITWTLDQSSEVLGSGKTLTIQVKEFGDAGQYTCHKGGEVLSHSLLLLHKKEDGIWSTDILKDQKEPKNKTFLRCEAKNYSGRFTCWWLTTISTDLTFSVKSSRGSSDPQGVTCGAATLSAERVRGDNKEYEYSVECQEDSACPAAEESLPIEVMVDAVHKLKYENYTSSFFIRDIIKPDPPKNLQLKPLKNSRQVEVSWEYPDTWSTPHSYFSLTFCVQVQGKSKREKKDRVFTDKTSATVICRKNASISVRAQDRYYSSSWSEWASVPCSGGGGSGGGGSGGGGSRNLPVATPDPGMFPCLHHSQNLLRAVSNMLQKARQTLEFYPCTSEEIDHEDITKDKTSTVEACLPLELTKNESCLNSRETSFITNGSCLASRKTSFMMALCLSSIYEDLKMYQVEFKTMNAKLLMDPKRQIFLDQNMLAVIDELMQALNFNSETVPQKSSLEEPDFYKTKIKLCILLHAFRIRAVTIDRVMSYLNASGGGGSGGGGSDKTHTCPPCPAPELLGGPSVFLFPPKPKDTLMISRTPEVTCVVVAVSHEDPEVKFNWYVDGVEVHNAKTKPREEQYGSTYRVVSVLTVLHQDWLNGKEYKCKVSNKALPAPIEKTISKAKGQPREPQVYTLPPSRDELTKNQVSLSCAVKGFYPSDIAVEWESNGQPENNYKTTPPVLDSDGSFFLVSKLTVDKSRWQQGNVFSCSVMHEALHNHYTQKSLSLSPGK

Reference: US20230295258A1 (KANAPH THERAPEUTICS, published 2023)
